Consider two molecules from patent US20110150888A1 (Amgen, published 2011).

B1: human hepcidin (mature, 25 amino acids) (peptide)
peptide: DTHFPICIFCCGCCHRSKCGMCCKT
modifications: disulfide (positions not given here); also: mono-biotinylated in some assays, site not given here
notes: the form is named in each assay field; also called rhuHepc; rhHepc

Assay [1] concerns the target T1, murine antibody 2.7.
T1 construct: Murine monoclonal antibody; murine IgG1 was used as its isotypic control; also called Ab2.7; Ab 2.7
The assay is described as follows: competitive binding assay, luminescence, standards in rabbit serum: unlabelled hepcidin against biotinylated human hepcidin (0.25 nM) for Ab2.7. As to the method:
(§1) Hepcidin levels were determined using hepcidin standards of varying concentrations (from 1.4-300 ng/ml) spiked into buffer (5% BSA:I-block), rabbit serum, or pooled human serum. Hepcidin was added to equal volumes of 40 ng/mL of Ab2.7 and incubated for 120 minutes. 25 μl/well of mixed solution was added to Black half area plates coated with 1-2 μg/mL G×M capture antibody. 25 μL/well of biotinylated hepcidin was added at 0.25 nM. The plate was covered with plate film sealer and incubated at room temperature (25° C.) on a plate shaker at around <200 RPM for around 60 minutes. The plate was washed and then 50 μL/well of Poly horseradish peroxidase amplification reagent at 1:2000 was added. The plate was allowed to sit for 30 minutes and was then washed with a plate washer using PBS or KPL buffer 6 times. The plate was patted dry and a luminescent substrate (Femto or Pico) was quickly added. The plate was read with luminometer (ex: Lmax 340) for 1 second using Femto or Pico Substrate. […] (FIG. 18).

The target of assay [2] is T1, murine antibody 2.7. Nature of the assay: competitive binding assay, luminescence, standards in buffer (5% BSA: I-block): unlabelled hepcidin against biotinylated human hepcidin (0.25 nM) for Ab2.7. As for the experimental part: as §1
Assay [3] addresses T1, murine antibody 2.7. The assay is described as follows: competitive binding assay, luminescence, standards spiked into pooled human serum (endogenous hepcidin present, not counted on the axis): unlabelled hepcidin against biotinylated human hepcidin (0.25 nM) for Ab2.7. As for the experimental part:
as §1

The target in assay [4] is B1. Nature of the assay: KinExA solution equilibrium, human hepcidin-coated beads. As to the method: SA-Sepharose beads were pre-coated with biotinylated human hepcidin (SEQ ID NO: 9) and blocked with BSA according to manufacturer's instructions. Antibodies and hepcidin were diluted in PBS/0.1% BSA/0.05% NaN₃ buffer. Fixed concentrations of antibodies 15E1, 15E1 W52H, 15E1 A99H, 15E1 N521-1, 15E1 A107H and 18B11 were incubated with various concentrations of human hepcidin at room temperature for 8 hours before being run through the human hepcidin-coated beads. The amount of the bead-bound antibody was quantified by fluorescently (Cy5)-labeled goat anti-murine-IgG (H+L) antibody (Jackson Immuno Research, West Grove, Pa.). The binding signal is proportional to the concentration of free antibody at equilibrium. Dissociation equilibrium constant (KD) was obtained from nonlinear regression of the competition curves using a dual-curve one-site homogeneous binding model (KinExATM Pro software).
Background: Kinetic exclusion samples the free partner from a solution-phase mixture.

In a further assay the target is T2, mouse hepcidin (mouse, UniProt Q9EQ21 59-83).
T2 peptide (looked up): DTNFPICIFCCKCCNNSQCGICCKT
The assay is described as follows: competition ELISA.

The target of assay [5] is B1. Nature of the assay: antibody at 1:250 dilution; KinExA / BIAcore named in the paragraph.
The target in assay [6] is B1. The assay is described as follows: ELISA, mono-biotinylated human hepcidin on Neutravidin plate, pH 6.0. As for the experimental part: (§2) Differential pH binding of the antibodies listed above in Table 3 was then determined by ELISA. 50 μL of Neutravidin (Pierce) at 8 μg/mL in 1×PBS was coated upon a Nunc Maxisorp 384-well plate, and incubated at 37° C. for 1 hr. After blocking the wells with 0.1% BSA/PBS/0.05% Tween20 for 1 hour at room temperature, plates were washed six times with PBS/0.05% Tween20. 25 μL of mono-biotinylated hepcidin at 50 ng/mL in 0.1% BSA/PBS/0.05% Tween20 was added to the 384-well plate, and incubated at room temperature for 1 hour. The plates were next washed six times with PBS/0.05% Tween20. Starting hepcidin antibody concentrations were normalized to 1 μg/mL for pH 5.5 and 6.0 conditions and to 100 ng/mL for pH 7.4 conditions. The hepcidin antibodies were serially diluted 3-fold in PBS/1% NFDM pH 7.4 and 4-fold in PBS/1% NFDM pH 6.0 and 5.5. The dilutions and titrations were performed in polypropylene 96-well dilution plates, and then were transferred in duplicate to a Neutravidin-coated 384-well plate. The biotinylated hepcidin and antibodies were incubated for 2 hours at room temperature. The plate was next washed six times with PBS/0.05% Tween20. 25 μL it of goat anti-huIgG-horseradish peroxidase at a 1:7000 dilution in 0.1% BSA/PBS/0.05% Tween20 was next added to each well of the assay plate. The plate was finally washed six times in PBS/0.05% Tween20. Enhanced K-Blue 3,3′,5,5′-Tetramethylbenzidine (TMB) Substrate (Neogen) was added and the reaction stopped using 1 M H₃PO₄ after 10 minutes of incubation at room temperature. The absorption was measured at 450 nm on a plate reader. Binding data were analyzed by non-linear regression analysis (sigmoidal dose-response, variable slope) to generate EC₅₀ values using GraphPad Prism® software. […] Double combinations of these mutants were made.
In general terms: ELISA stands for enzyme-linked immunosorbent assay.

Assay [7] concerns the target B1. The assay is described as follows: BIAcore, rhuHepc immobilised on CM5 chip, dissociation buffers of pH 7.4, 6 and 5.5; dissociation buffer pH 7.4. As to the method: Off-rate analysis of dissociation at different pHs was also performed. A slow off-rate is expected to predict increased binding interaction over a longer period of time, while a faster off-rate is expected to predict decreased binding interaction. For example, a faster off-rate at lower pH is expected to predict greater release of antigen at lower pH. Solution equilibrium binding analysis was performed using BIAcore to study the off-rates of antibodies 1S1, 1S3, 2.7, 18B11, 23F11 and 26F11 with recombinant human hepcidin (SEQ ID NO: 9).
Immobilization of recombinant human hepcidin (rhuHepc) to a BIAcore sensor chip surface was performed according to manufacturer's instructions at a flow rate 10 μL/min of running buffer (DPBS: Dulbecco's Phosphate Buffer Salinel X, no CaCl or MgCl, with 0.005% Biacore surfactant P-20). The carboxylated matrix of the sensor chip was first activated with a 60 μL injection of a mixture containing 0.2 M EDC(N-ethyl-N-(dimethylamine-propyl)carbodiimide in water, from BIAcore) and 0.05M NHS (N-hydroxysuccinimide in water, from Biacore). 55 μL of recombinant human hepcidin (1 μg/ml in 10 mM Na-acetate pH4.0) was injected to immobilize onto the sensor chip. The excess reactive groups of the sensor chip were deactivated with an injection of 60 μL of ethanolamine (1.0M, from Biacore). […]

The target of assay [8] is B1. The assay is described as follows: ELISA, mono-biotinylated human hepcidin on Neutravidin plate, pH 7.4. As for the experimental part: as §2

Where no end group is shown, it is not given here.

Take B1: the “IC50 (read off the curve)” value with murine antibody 2.7 [1] is ~7 ng/mL; in the assay with murine antibody 2.7 [2], ~8 ng/mL; with murine antibody 2.7 [3], ~10 ng/mL.

B2: antibody 18B11 (antibody, V domains shown)
VH: QVQLQQWGAGPLKPSETLSLTCAVYNGSFSGYYWSWIRQPPGKGLEWIGDINHSGNTKYNPSLKSRVTISVDTSKNQFSLKLSSVTAADTAVYYCARGDFWSGFDWFDPWGQGTLVTVSS
VL: QSALTQPASVSGSPGQSITISCTGTSSNVGSYNLVSWYQQHPGKAPKLMISEVSKRPSGLSNRFSGSKSGNTASLTISGLQAEDEADYYCCSYAGSSTLIFGGGTKLTVL
notes: Human antibody from Xenomouse IgG2 or IgG4 mice; also called 181311
Turning to B2, the Kd in assay [4] came to 7.4 nM. Also, in the assay with mouse hepcidin, the binding result is on record as “no binding”. In addition, in assay [5], the “fold reduction in affinity at pH 6 compared to pH 7.4” value is ~10 fold. Also, the values for the EC50 in assay [6] and in assay [8] were 244 ng/mL and 2.7 ng/mL, respectively. In addition, the koff in [7] was > 0.01 s⁻¹.

Usually Kd stands for a measure of binding affinity in units of concentration. As usually defined, the EC50 is the concentration giving half of the maximal effect. For orientation: koff means a measure of how fast the partners let go of each other. Read a low koff as slow dissociation.
